Laboratory results reported in article PMC8571081.

Experiments:
[1] = target: Recombinant mouse IL-12Rβ2-Fc chimera protein (mouse) (UniProt P97378); assay: SPR; IL-23R-Fc and IL-12Rβ2-Fc captured on a Protein A chip (~150 RU); HIL-12 (0.3-5 nM) or HIL-23 (15-1000 nM) variants injected at 30 μl/min; 25 °C, PBS pH 7.4, 0.05% P20; multi-cycle; 1:1 binding model; Biacore X100
[2] = target: Recombinant mouse IL-23R-Fc chimera protein (mouse) (UniProt Q8K4B4); assay: as above
Sequence of UniProt Q8K4B4 (Q8K4B4 24-374, change not shown): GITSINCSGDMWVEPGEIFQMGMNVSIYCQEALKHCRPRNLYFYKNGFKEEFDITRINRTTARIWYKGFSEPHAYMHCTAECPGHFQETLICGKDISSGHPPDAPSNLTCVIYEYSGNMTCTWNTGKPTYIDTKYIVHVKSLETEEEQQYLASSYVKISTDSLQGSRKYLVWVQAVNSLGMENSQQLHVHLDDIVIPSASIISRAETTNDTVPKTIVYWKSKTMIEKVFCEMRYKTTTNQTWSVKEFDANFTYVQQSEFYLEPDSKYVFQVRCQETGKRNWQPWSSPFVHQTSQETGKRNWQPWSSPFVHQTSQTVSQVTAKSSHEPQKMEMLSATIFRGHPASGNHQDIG

Sequence of UniProt P97378 (P97378 24-637, stated change not applied): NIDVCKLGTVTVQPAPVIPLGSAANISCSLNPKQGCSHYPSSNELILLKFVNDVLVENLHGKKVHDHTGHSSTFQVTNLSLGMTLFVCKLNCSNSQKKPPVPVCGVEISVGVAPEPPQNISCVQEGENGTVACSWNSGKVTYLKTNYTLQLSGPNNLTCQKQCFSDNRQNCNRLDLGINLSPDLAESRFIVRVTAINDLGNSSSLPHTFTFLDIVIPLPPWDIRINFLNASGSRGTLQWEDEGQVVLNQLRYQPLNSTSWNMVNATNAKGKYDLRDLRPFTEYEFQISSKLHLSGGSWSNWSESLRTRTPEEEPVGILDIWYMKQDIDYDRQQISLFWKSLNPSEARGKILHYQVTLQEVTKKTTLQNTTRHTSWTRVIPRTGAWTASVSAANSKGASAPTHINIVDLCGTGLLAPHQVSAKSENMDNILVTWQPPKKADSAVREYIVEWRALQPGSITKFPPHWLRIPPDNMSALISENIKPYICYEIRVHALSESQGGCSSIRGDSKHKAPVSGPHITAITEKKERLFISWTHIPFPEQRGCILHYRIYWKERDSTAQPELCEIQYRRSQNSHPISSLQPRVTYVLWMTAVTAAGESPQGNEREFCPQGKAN

| Kd [1] | koff [1] | kon [1] | Kd [2] | koff [2] | kon [2] | Substance |
| --- | --- | --- | --- | --- | --- | --- |
| 0.84 nM | 0.0027 s⁻¹ | 3.2e+06 M⁻¹ s⁻¹ |  |  |  | HIL-12D36K/W37K/T38K, purified with Twin-Strep-tag (ligand) |
|  |  |  | 57 nM | 0.0011 s⁻¹ | 19000 M⁻¹ s⁻¹ | HIL-23D36K/W37K/T38K, purified with Twin-Strep-tag (from UniProt P43432 23-335) (ligand) |
| 0.987 nM | 0.0019 s⁻¹ | 1.9e+06 M⁻¹ s⁻¹ |  |  |  | murine Hyper-IL-12 (HIL-12), purified with Twin-Strep-tag (ligand) |
|  |  |  | 40 nM | 0.0012 s⁻¹ | 30000 M⁻¹ s⁻¹ | murine Hyper-IL-23 (HIL-23), purified with Twin-Strep-tag (from UniProt P43432 23-335) (ligand) |
